From patent US20230303685A1 (ELECTRA THERAPEUTICS, published 2023)

T1: Human SIRPγ
T1 construct: also called human SIRPγ extracellular domain, plate-coated
T1 chain: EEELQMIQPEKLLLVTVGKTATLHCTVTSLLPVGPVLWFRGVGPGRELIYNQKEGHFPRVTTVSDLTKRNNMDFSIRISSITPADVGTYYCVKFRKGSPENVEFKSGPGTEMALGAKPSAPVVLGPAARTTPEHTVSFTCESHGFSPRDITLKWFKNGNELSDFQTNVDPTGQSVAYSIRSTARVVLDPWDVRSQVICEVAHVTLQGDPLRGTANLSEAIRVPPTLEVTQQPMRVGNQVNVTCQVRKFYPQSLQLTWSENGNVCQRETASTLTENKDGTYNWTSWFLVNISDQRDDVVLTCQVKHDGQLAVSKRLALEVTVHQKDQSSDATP

T2: Human SIRPβ1
T2 construct: also called human SIRPβ1 extracellular domain, plate-coated
T2 chain: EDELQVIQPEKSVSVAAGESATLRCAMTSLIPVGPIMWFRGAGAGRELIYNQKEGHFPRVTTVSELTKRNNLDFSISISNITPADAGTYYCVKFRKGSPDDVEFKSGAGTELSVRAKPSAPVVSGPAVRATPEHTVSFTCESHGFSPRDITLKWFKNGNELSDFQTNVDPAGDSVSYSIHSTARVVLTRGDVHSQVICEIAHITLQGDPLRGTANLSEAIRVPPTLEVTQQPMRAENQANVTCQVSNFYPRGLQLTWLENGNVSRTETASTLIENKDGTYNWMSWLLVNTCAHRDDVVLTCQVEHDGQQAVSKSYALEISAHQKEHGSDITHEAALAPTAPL

T3: Human SIRPγ CHO
T3 construct: also called human SIRPγ on CHO cells
T3 chain: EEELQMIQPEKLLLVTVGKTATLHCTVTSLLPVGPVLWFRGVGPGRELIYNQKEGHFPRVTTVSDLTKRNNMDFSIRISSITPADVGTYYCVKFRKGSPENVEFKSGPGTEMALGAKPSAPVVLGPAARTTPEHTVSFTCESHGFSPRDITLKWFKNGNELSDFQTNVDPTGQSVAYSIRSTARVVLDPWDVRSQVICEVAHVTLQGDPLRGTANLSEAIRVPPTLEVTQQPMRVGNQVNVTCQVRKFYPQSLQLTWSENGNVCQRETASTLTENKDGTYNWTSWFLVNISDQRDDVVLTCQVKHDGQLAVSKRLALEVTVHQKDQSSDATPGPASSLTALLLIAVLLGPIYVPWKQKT

B1: Antibody 1 (antibody, V domains shown)
VH: QVQLQESGPGLVKPSGTLSLTCAVSGGSISSSNWWSWVRQPPGKGLEWIGEIYHSGSTNYNPSLKSRVTISVDKSKNQFSLKLSSVTAADTAVYYCARRGIWFGVGPWGQGTLVTVSS
VL: DIVMTQSPLSLPVTPGEPASISCRSSQSLLHGNGFNYLDWYLQKPGQSPQLLIYLGSNRASGVPDRFTGSGSGTDFTLKISRVEAEDVGVYYCMQGLQTPRTFGQGTKVEIK
notes: Human variable region, rat IgG2b Fc; from hybridoma
B2: Antibody 28, monomeric F(ab') (gingipain K digest, biotinylated) (Fab, V domains shown)
VH: B1 VH
VL: B1 VL
modifications: biotinylated (site not stated)
B3: Antibody 4 (antibody, V domains shown)
VH: QVQLQESGPGLLKPSETLSLTCAVSDYSISSGYYWGWIRQPPGKGLEWIGSIYHSGNTYYNPSLKSRVTILVDTSKNQFSLKLSSVTAADTAVYYCARDKCSTTTCSFDYWGQGTLVTVSS
VL: DIQMTQSPSSLSASVGDRVTITCQASQDFSNYLNWYQQKPGKAPKLLIYAASNLETGVPSRFSGSGSGTDFTFTISSLQPEDIAVYYCQQYDNLPYTFGQGTKLEIK
notes: as for B1

Tests used:
[1] = target: T4, Human SIRPγ conjugated to an Fc region (human); experiment: BLI blocking; 200 nM antibody pre-incubated with 20 nM SIRPγ-Fc, binding to immobilised CD47-His (competitor), % of response of SIRPγ-Fc alone
T4 construct: also called SIRPγ-Fc; SIRP-Fc; not shown: Fc region

[2] = target: T5, cynomolgus monkey SIRPα extracellular domain, monomeric (cynomolgus monkey, UniProt A0A2K5VYQ9 31-372); experiment: SPR (Biacore); antibody captured by anti-IgG on chip, monomeric SIRPα extracellular domain as analyte, 1:1 model
T5 construct: extracellular domain; also called Cyno SIRPα

[3] = target: T6, human SIRPα V1 extracellular domain, monomeric (human, UniProt P78324 31-373); experiment: as above
T6 construct: also called hSIRPα V1

human SIRPγ-His monomer [4] = target: T7, human SIRPγ-His monomer (human); experiment: BLI (Octet); antibody on anti-mouse IgG capture tip, SIRP-His monomer at 100, 33.3, 11.1 nM, 1:1 fit, mean KD
T7 construct: 'SIRP-His monomer protein' of the Octet assay; also called SIRP-His; not shown: His tag
Outline: (§1)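 Rat/mouse-Fc antibodies captured on anti-mouse IgG tips; human-Fc antibodies cleaved with gingipain K to monomeric F(ab′), biotinylated, loaded on streptavidin tips. SIRP-His association then wash-buffer dissociation; 1:1 model fitted per concentration, KD as kdis/kon averaged over concentrations.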

human SIRPβ1-His monomer [5] = target: T8, human SIRPβ1-His monomer (human, UniProt O00241 30-371); experiment: as above
T8 construct: 'SIRP-His monomer protein' of the Octet assay; also called SIRP-His; not shown: His tag
Outline: as §1

[6] = target: T9, human SIRPα V1-His monomer (human, UniProt P78324 31-373, limits assumed); experiment: as above
T9 construct: 'SIRP-His monomer protein' of the Octet assay; also called SIRP-His; not shown: His tag
Outline: as §1

Human SIRPγ = target: T1, Human SIRPγ; experiment: ELISA, extracellular domain coated at 2 µg/mL, purified antibody titrated, anti-rat or anti-mouse IgG, chemiluminescence
Protocol: (§2) Select SIRP antibodies were purified by Protein G from hybridoma supernatants and analyzed in a titration via ELISA. Briefly, 2 μg/mL of extracellular domain of each of the SIRPs was coated onto high protein-binding plates and blocked. Purified antibodies were added in a titration to the coated plates. The antibodies were detected by an anti-rat IgG or an anti-mouse IgG antibody and a chemiluminescent substrate.

[7] = target: T5, cynomolgus monkey SIRPα extracellular …; experiment: as above
Protocol: as §2

[8] = target: T6, human SIRPα V1 extracellular domain, …; experiment: as above
Protocol: as §2

Cynomolgus Monkey SIRPβ1 = target: T10, Cynomolgus Monkey SIRPβ1 (Macaca fascicularis); experiment: as above
T10 construct: extracellular domain; also called cyno SIRPβ1 extracellular domain, plate-coated
Protocol: as §2

human SIRPγ-His monomer [9] = target: T7, human SIRPγ-His monomer; experiment: BLI (Octet); biotinylated monomeric F(ab') on streptavidin tip, SIRP-His monomer at 100, 33.3, 11.1 nM, 1:1 fit, mean KD
Protocol: (§3) Select SIRP antibodies were tested for their affinities to human SIRPα, SIRPβ1, and SIRPγ using a biolayer interferometry (BLI) Octet system (Pall ForteBio). Each SIRP antibody with rat or mouse Fc was immobilized on a biosensor tip by an anti-mouse IgG capture (AMC). Antibodies with human Fc were digested with gingipain K enzyme to yield monomeric F(ab′), biotinylated, then coated onto streptavidin biosensors. […] The biosensors were then exposed to wash buffer to measure off-rate kinetics. The resulting kinetic data were analyzed and fitted using a 1:1 binding model with kₒₙ and kdis fitted separately at each SIRP-His protein concentration. KD affinities were calculated as kdis to kₒₙ ratio at each concentration of SIRP-His and averaged.

human SIRPβ1-His monomer [10] = target: T8, human SIRPβ1-His monomer; experiment: as above
Protocol: as §3

[11] = target: T9, human SIRPα V1-His monomer; experiment: as above
Protocol: as §3

[12] = target: T6, human SIRPα V1 extracellular domain, …; experiment: ELISA, extracellular domain coated at 1 µg/mL, purified antibody titrated, anti-rat IgG, chemiluminescence
Protocol: as §2, with “1” for “2”, “SIRPα” for “of each of the SIRPs”, “IgG” for “IgG or an anti-mouse IgG”

Human SIRPβ1 = target: T2, Human SIRPβ1; experiment: ELISA, extracellular domain coated at 2 µg/mL, undiluted hybridoma supernatant, anti-rat or anti-mouse IgG, chemiluminescence
Protocol: Briefly, 2 μg/mL of the extracellular domain of each of the SIRPs was coated onto high protein-binding plates and blocked. Supernatants were added undiluted to coated plates. The antibodies were detected by anti-rat or anti-mouse IgG antibodies and a chemiluminescent substrate. […] The data depict the relative luminescence units read by a plate-reader capable of detecting chemiluminescence.

Cynomolgus Monkey SIRPγ = target: T11, Cynomolgus Monkey SIRPγ (Macaca fascicularis); experiment: ELISA, extracellular domain coated at 2 µg/mL, purified antibody titrated, anti-rat or anti-mouse IgG, chemiluminescence
T11 construct: extracellular domain; also called cyno SIRPγ extracellular domain, plate-coated
Protocol: as §2

Human SIRPγ CHO = target: T3, Human SIRPγ CHO; experiment: flow cytometry, stably transfected CHO cells, antibody titrated, labelled anti-rat or anti-mouse IgG, MFI
Protocol: (§4) Selected antibodies were tested for binding to stably transfected human SIRPα, SIRPβ1 (co-transfected with DAP12), or SIRPγ Chinese hamster ovary (CHO) cells via flow cytometry. A titration of SIRP antibodies was added to the cells and detected using a fluorescently labelled secondary antibody. Graph depicts the median fluorescence intensity (MFI) at each concentration.

Human SIRPβ1/DAP12 CHO = target: T12, Human SIRPβ1/DAP12 CHO; experiment: as above
T12 construct: also called human SIRPβ1 on CHO cells co-transfected with DAP12; copies: 1 + 2
Protocol: as §4

T12 sequence (DAP12, as listed by the source limits assumed): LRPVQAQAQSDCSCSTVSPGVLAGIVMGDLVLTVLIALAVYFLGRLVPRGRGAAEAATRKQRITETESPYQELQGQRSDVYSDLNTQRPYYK
T4 sequence (Q9P1W8 whole entry): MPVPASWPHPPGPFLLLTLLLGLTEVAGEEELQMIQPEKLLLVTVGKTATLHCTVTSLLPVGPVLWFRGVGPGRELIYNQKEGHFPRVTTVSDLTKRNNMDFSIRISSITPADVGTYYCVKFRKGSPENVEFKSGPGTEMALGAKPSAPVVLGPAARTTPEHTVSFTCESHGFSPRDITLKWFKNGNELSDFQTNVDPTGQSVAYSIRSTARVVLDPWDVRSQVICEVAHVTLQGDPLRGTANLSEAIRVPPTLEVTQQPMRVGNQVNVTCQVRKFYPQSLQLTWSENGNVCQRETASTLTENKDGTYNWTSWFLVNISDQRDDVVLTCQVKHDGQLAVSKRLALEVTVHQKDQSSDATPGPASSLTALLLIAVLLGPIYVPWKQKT

Row | SIRPγ-CD47 Response (%) [1] | Kd [2] | Kd [3] | Kd (human SIRPγ-His monomer [4]) | Kd (human SIRPβ1-His monomer [5]) | Kd [6] | EC50 (read off the curve) (Human SIRPγ) | EC50 (read off the curve) [7] | EC50 (read off the curve) [8] | EC50 (read off the curve) (Cynomolgus Monkey SIRPβ1) | Kd (human SIRPγ-His monomer [9]) | Kd (human SIRPβ1-His monomer [10]) | Kd [11] | EC50 (read off the curve) [12] | binding result (Human SIRPβ1) | EC50 (read off the curve) (Cynomolgus Monkey SIRPγ) | EC50 (read off the curve) (Human SIRPγ CHO) | binding result (Human SIRPβ1/DAP12 CHO) | Binder
1 | 110% | 581 nM | 579 nM | 973 nM | 3520 nM | 37.1 nM | ~0.2 µg/mL | ~0.1 µg/mL | ~0.1 µg/mL | ~0.2 µg/mL | – | – | – | – | – | – | – | – | B1
2 | – | – | – | – | – | – | – | – | – | – | 1340 nM | 555 nM | 14.9 nM | – | – | – | – | – | B2
3 | -6.94% | – | – | 24.1 nM | – | 46.1 nM | ~0.05 µg/mL | – | ~0.06 µg/mL | – | – | – | – | ~0.05 µg/mL | binds | ~0.07 µg/mL | ~0.1 µg/mL | binds | B3
